One experiment concerns the target tau 48-71 (human). Kind of experiment: peptide ELISA, biotinylated peptide on streptavidin plate, IgG titrated (Example 14). Conditions: remark: other sources report otherwise. In general terms: An ELISA detects its analyte on a solid surface through an enzyme-linked reagent.
Experiment [1] concerns the target recombinant tau (human), P10636. The experiment can be described thus: ELISA, recombinant tau coated on the plate, IgG titrated (Example 7). Conditions: remark: other sources report otherwise.

Sequence of recombinant tau (human), P10636 (P10636 other isoform, or with tags, fused parts or gaps limits assumed): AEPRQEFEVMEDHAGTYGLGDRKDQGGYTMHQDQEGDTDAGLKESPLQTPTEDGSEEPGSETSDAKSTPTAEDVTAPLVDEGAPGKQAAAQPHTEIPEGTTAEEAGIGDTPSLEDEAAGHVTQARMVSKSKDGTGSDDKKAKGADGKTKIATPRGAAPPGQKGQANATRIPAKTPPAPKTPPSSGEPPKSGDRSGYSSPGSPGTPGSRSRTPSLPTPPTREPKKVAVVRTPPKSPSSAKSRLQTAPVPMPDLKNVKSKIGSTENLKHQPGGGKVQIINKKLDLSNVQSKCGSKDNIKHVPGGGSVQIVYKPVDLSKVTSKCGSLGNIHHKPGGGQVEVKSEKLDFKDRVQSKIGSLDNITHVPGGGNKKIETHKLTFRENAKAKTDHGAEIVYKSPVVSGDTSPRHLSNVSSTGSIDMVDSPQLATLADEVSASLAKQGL
Sequence of tau 48-71 (human) (peptide, as listed by the source limits assumed, form in doubt): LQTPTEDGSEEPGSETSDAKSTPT

B1: CBTAU-28.1 (antibody, human IgG1, V domains shown)
VH: QVQLQQSGAEVKKPGESLKISCEASGYSFTNYWIGWVRQMPGKGLEWMGIIYPGDSDTRYSPPFQGQVTITADRSITTAYLEWSSLKASDTAMYYCARVGRPSKGGWFDPWGQGTLVTVSS
VL: DIQMTQSPDSLAVSLGERATINCESSQTLLYSSNEKNYLAWYQQKPGQPPKLLISWASTPESGVPDRFSGSGSGTSFTLTISSLQAEDVAVYYCQQYYNSPYTFGQGTRLEIK
modifications: here or on the partner: N-terminal biotin not carried in the letters; no phosphorylation
In the case of B1, the half-maximal effective concentration (EC50 (read off the curve)) (commonly the concentration needed to bring the measured effect to its halfway point) with tau 48-71 (human) stood at 0.06 µg/mL; in experiment [1], 8 ng/mL.

Source of the values: patent US20170152307A1.
